{"source": "patent US20240252628A1", "binders": {"B1": {"name": "ALK4-Fc homodimer, P36896 24-126 (Fc fusion, not shown: a dimerising Fc or GST)", "chain": "SGPRGVQALLCACTSCLQANYTCETDGACMVSIFNLDGMEHHVRTCIPKVELVPAGKPFYCLSSEDLRNTHCCYTDYCNRIDLRVPSGHLKEPEHPSMWGPVE"}}, "target": "GDF8, O14793", "sequence (O14793 267-375 limits assumed)": "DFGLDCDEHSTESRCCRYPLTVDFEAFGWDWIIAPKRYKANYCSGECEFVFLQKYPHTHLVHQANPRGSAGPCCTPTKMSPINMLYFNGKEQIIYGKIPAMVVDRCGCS", "assay": "SPR (Biacore), anti-Fc capture of receptor; very low signal", "settings": "remark: other sources report otherwise"}
{"binder": "B1", "values": [{"measurement": "Kd", "result": 15, "unit": "nM"}, {"measurement": "koff", "result": 0.0019, "unit": "s⁻¹"}, {"measurement": "kon", "result": 130000, "unit": "M⁻¹ s⁻¹"}]}
